Source: patent US20030148958A1 (PROCTER AND GAMBLE, published 2003)
Ends that are not written are not given here.

Experiments:
[1] = biological target: corticotropin releasing factor 1 receptor; experiment: cell-based or functional assay
[2] = biological target: T1, corticotropin releasing factor 2 receptor; experiment: cell-based or functional assay
T1 sequence (Q13324 whole entry, species assumed, looked up): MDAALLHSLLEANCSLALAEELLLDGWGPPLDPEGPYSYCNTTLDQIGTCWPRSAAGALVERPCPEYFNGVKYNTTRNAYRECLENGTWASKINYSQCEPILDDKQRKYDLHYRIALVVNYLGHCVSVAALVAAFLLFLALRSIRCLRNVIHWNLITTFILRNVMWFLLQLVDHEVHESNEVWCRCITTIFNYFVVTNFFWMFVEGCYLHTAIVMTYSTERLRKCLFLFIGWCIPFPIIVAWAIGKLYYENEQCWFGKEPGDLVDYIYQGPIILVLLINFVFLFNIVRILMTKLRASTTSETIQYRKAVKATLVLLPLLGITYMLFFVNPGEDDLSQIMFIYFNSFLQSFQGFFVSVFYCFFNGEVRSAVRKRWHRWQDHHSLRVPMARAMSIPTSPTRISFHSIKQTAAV
Throughout, for CRF1R Emax: reference of the scale not given here.
Throughout, for CRF2R Emax: reference of the scale not given here.

Row | Binder | CRF1R EC50 [1] [nM] | CRF1R Emax [1] [%] | CRF2R EC50 [2] [nM] | CRF2R Emax [2] [%]
1 | ZGPPISIDLSIGLLRKMIEIEKQEKEKQQAANNRLLLDTI (C-terminal amide) [SEQ ID NO 25] | 677 | 92.3 | 81 | 81.9
2 | ZGPPISIDLPIDLLRKMIEIEKQEKEKQQAANNRLLLDTI (C-terminal amide) [SEQ ID NO 28] | > 1000 | 2 | 100 | 15
3 | ZGPPISIDLPIKLLRKMIEIEKQEKEKQQAANNRLLLDTI (C-terminal amide) [SEQ ID NO 34] | > 1000 | 11 | > 100 | 45
4 | ZGPPISIDLPIFLLRKMIEIEKQEKEKQQAANNRLLLDTI (C-terminal amide) [SEQ ID NO 29] | > 1000 | 79 | 16 | 100
5 | ZGPPISIDLPQYLLRKMIEIEKQEKEKQQAANNRLLLDTI (C-terminal amide) [SEQ ID NO 27] | 325 | 100 | 10.7 | 96
6 | ZGPPISIDLSLELLRKMIEIEKQEKEKQQAANNALLLATI (C-terminal amide) [SEQ ID NO 30] | 100 | 100 | 18.7 | 85.5
7 | ZGPPISIDLPTFLLRKMIEIEKQEKEKQQAANNRLLLDTI (C-terminal amide) [SEQ ID NO 44] | 944 | 64 | 19.1 | 87
8 | ZGPPISIDLPIRLLRKMIEIEKQEKEKQQAANNRLLLDTI (C-terminal amide) [SEQ ID NO 38] | > 1000 | 11 | 71.9 | 91
9 | ZGPPISIDLPINLLRKMIEIEKQEKEKQQAANNRLLLDTI (C-terminal amide) [SEQ ID NO 37] | > 1000 | 5 | > 100 | 51
10 | ZGPPISIDLPQVLLRKMIEIEKQEKEKQQAANNRLLLDTI (C-terminal amide) [SEQ ID NO 197] | – | – | 48.1 | 94
11 | ZGPPISIDLPIVLLRKMIEIEKQEKEKQQAANNRLLLDTI (C-terminal amide) [SEQ ID NO 31] | > 1000 | 18 | 30.8 | 100
12 | ZGPPISIDLPQQLLRKMIEIEKQEKEKQQAANNRLLLDTI (C-terminal amide) [SEQ ID NO 198] | – | – | 29.9 | 100
13 | ZGPPISIDLPAYLLRKMIEIEKQEKEKQQAANNRLLLDTI (C-terminal amide) [SEQ ID NO 32] | 606 | 94 | 20.2 | 98
14 | ZGPPISIDLPILLLRKMIEIEKQEKEKQQAANNRLLLDTI (C-terminal amide) [SEQ ID NO 35] | > 1000 | 74 | 15.6 | 88
15 | ZGPPISIDLPTWLLRKMIEIEKQEKEKQQAANNRLLLDTI (C-terminal amide) [SEQ ID NO 41] | > 1000 | 43 | 18.3 | 100
16 | ZGPPISIDLPTTLLRKMIEIEKQEKEKQQAANNRLLLDTI (C-terminal amide) [SEQ ID NO 42] | > 1000 | 10 | > 100 | 88
17 | ZGPPISIDLPIPLLRKMIEIEKQEKEKQQAANNRLLLDTI (not fully specified; C-terminal amide) [SEQ ID NO 26] | > 1000 | 16 | 91.8 | 86
18 | ZGPPISIDLPVYLLRKMIEIEKQEKEKQQAANNRLLLDTI (C-terminal amide) [SEQ ID NO 39] | 1000 | 63 | 58.2 | 94
19 | ZGPPISIDLPIILLRKMIEIEKQEKEKQQAANNRLLLDTI (C-terminal amide) [SEQ ID NO 36] | > 1000 | 33 | 14.8 | 73
20 | ZGPPISIDLPYYLLRKMIEIEKQEKEKQQAANNRLLLDTI (C-terminal amide) [SEQ ID NO 40] | 102 | 99 | 6.95 | 93
21 | ZGPPISIDLPTSLLRKMIEIEKQEKEKQQAANNRLLLDTI (C-terminal amide) [SEQ ID NO 43] | > 1000 | 10 | > 100 | 67
22 | IVLSLDVPIGLLQILLEQEKARAAREQATTNARILARV-NH2 [SEQ ID NO 107] | – | – | 12.1 | –
23 | IVLSLDVPIGLLQILLEQEKARAAREQATTNARILARV-NH2 [SEQ ID NO 3] | – | – | 12.1 | –
24 | SQEPPISLDLPLELLREVLEMTKADQLAQQAHSNRKLLDIA-NH2 [SEQ ID NO 89] | – | – | 100 | 12.7
25 | IVLSLDVPIGLLQILLEQEKARAAREQATTNARILARV-NH2 [SEQ ID NO 121] | – | – | 5.67 | –
